Experimental data as given in US20120220489A1.
One block for each substance: values may come before it.

How the values were obtained:
[1] = target: ERK1 (p42) active (phospho), human, Active Motif 31 152 (human) (UniProt P27361); test: RPA, competition: +free H3 peptide 10 nM
[2] = target: ERK1 (p44) active (GST tagged), human, Invitrogen PV 3311 (human) (UniProt P27361); test: RPA, competition: +free H3 peptide 10 nM
[3] = target: ERK1 (p44) inactive (GST tagged), human, Invitrogen PV 3312 (human) (UniProt P27361); test: RPA, competition: +free H3 peptide 10 nM
[4] = target: ERK1 (p44), human, Cell Signaling Technology 7416 (human) (UniProt P27361); test: RPA, competition: +free H3 peptide 10 nM
[5] = target: ERK2 (p42), human, Biosource PHO 0104 (human) (UniProt P28482); test: RPA, competition: +free H3 peptide 10 nM
[6] = target: Erk1-BSA 2.7x peptide-protein conjugate (human; bovine); test: RPA, competition: +free H3 peptide 10 nM
[7] = target: Histone H3 recombinant protein, calf, Roche 11 034 758 001 (calf) (UniProt P68432); test: RPA, competition: +free H3 peptide 10 nM
[8] = target: Histone H3 recombinant protein, human, Upstate 14-494 (human) (UniProt P68431); test: RPA, competition: +free H3 peptide 10 nM
[9] = target: Histone H3-BSA 2.7x peptide-protein conjugate (bovine); test: RPA, competition: +free H3 peptide 10 nM
[10] = target: pErk1/2-BSA 2.7x peptide-protein conjugate (human; bovine); test: RPA, competition: +free H3 peptide 10 nM
[11] = target: pRb recombinant protein, human, Active Motif 31 128 (human) (UniProt P06400); test: RPA, competition: +free H3 peptide 10 nM
[12] = target: pRb-BSA 1x peptide-protein conjugate (bovine); test: RPA, competition: +free H3 peptide 10 nM
[13] = target: ERK1 (p42) active (phospho), human, Active Motif 31 152 (human) (UniProt P27361); test: RPA, competition: +free H3 peptide 1000 nM
[14] = target: ERK1 (p44) active (GST tagged), human, Invitrogen PV 3311 (human) (UniProt P27361); test: RPA, competition: +free H3 peptide 1000 nM
[15] = target: ERK1 (p44) inactive (GST tagged), human, Invitrogen PV 3312 (human) (UniProt P27361); test: RPA, competition: +free H3 peptide 1000 nM
[16] = target: ERK1 (p44), human, Cell Signaling Technology 7416 (human) (UniProt P27361); test: RPA, competition: +free H3 peptide 1000 nM
[17] = target: ERK2 (p42), human, Biosource PHO 0104 (human) (UniProt P28482); test: RPA, competition: +free H3 peptide 1000 nM
[18] = target: Erk1-BSA 2.7x peptide-protein conjugate (human; bovine); test: RPA, competition: +free H3 peptide 1000 nM
[19] = target: Histone H3 recombinant protein, calf, Roche 11 034 758 001 (calf) (UniProt P68432); test: RPA, competition: +free H3 peptide 1000 nM
[20] = target: Histone H3 recombinant protein, human, Upstate 14-494 (human) (UniProt P68431); test: RPA, competition: +free H3 peptide 1000 nM
[21] = target: Histone H3-BSA 2.7x peptide-protein conjugate (bovine); test: RPA, competition: +free H3 peptide 1000 nM
[22] = target: pErk1/2-BSA 2.7x peptide-protein conjugate (human; bovine); test: RPA, competition: +free H3 peptide 1000 nM
[23] = target: pRb recombinant protein, human, Active Motif 31 128 (human) (UniProt P06400); test: RPA, competition: +free H3 peptide 1000 nM
[24] = target: pRb-BSA 1x peptide-protein conjugate (bovine); test: RPA, competition: +free H3 peptide 1000 nM
[25] = target: ERK1 (p42) active (phospho), human, Active Motif 31 152 (human) (UniProt P27361); test: RPA, competition: +free pErk1/2 peptide 1000 nM
[26] = target: ERK1 (p44) active (GST tagged), human, Invitrogen PV 3311 (human) (UniProt P27361); test: RPA, competition: +free pErk1/2 peptide 1000 nM
[27] = target: ERK1 (p44) inactive (GST tagged), human, Invitrogen PV 3312 (human) (UniProt P27361); test: RPA, competition: +free pErk1/2 peptide 1000 nM
[28] = target: ERK1 (p44), human, Cell Signaling Technology 7416 (human) (UniProt P27361); test: RPA, competition: +free pErk1/2 peptide 1000 nM
[29] = target: ERK2 (p42), human, Biosource PHO 0104 (human) (UniProt P28482); test: RPA, competition: +free pErk1/2 peptide 1000 nM
[30] = target: Erk1-BSA 2.7x peptide-protein conjugate (human; bovine); test: RPA, competition: +free pErk1/2 peptide 1000 nM
[31] = target: Histone H3 recombinant protein, calf, Roche 11 034 758 001 (calf) (UniProt P68432); test: RPA, competition: +free pErk1/2 peptide 1000 nM
[32] = target: Histone H3 recombinant protein, human, Upstate 14-494 (human) (UniProt P68431); test: RPA, competition: +free pErk1/2 peptide 1000 nM
[33] = target: Histone H3-BSA 2.7x peptide-protein conjugate (bovine); test: RPA, competition: +free pErk1/2 peptide 1000 nM
[34] = target: pErk1/2-BSA 2.7x peptide-protein conjugate (human; bovine); test: RPA, competition: +free pErk1/2 peptide 1000 nM
[35] = target: pRb recombinant protein, human, Active Motif 31 128 (human) (UniProt P06400); test: RPA, competition: +free pErk1/2 peptide 1000 nM
[36] = target: pRb-BSA 1x peptide-protein conjugate (bovine); test: RPA, competition: +free pErk1/2 peptide 1000 nM

UniProt P06400, sequence (P06400 whole entry): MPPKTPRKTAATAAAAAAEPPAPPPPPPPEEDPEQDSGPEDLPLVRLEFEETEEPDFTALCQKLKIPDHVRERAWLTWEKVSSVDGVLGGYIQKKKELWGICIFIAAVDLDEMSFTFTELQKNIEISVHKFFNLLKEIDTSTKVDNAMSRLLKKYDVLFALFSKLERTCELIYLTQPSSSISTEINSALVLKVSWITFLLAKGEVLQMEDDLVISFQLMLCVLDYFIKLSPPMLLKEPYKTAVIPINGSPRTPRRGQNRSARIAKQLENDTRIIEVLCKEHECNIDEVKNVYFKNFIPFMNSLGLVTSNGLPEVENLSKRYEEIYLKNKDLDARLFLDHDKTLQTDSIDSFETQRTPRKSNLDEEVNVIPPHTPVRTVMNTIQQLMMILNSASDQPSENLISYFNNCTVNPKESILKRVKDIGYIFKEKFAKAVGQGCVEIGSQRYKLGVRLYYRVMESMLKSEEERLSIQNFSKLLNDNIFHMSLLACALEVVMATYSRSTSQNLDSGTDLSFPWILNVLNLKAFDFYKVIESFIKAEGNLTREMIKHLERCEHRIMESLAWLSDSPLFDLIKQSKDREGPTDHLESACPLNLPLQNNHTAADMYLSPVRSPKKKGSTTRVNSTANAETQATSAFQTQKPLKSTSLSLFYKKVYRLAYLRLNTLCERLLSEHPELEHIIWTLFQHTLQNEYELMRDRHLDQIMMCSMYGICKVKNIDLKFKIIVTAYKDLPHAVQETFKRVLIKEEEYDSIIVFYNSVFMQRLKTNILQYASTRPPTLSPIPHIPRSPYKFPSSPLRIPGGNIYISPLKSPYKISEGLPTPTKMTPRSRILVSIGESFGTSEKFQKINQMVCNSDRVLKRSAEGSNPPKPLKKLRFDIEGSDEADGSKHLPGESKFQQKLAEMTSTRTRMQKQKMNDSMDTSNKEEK
pRb-BSA 1x peptide-protein conjugate (bovine), sequence (P02769 25-607 limits assumed): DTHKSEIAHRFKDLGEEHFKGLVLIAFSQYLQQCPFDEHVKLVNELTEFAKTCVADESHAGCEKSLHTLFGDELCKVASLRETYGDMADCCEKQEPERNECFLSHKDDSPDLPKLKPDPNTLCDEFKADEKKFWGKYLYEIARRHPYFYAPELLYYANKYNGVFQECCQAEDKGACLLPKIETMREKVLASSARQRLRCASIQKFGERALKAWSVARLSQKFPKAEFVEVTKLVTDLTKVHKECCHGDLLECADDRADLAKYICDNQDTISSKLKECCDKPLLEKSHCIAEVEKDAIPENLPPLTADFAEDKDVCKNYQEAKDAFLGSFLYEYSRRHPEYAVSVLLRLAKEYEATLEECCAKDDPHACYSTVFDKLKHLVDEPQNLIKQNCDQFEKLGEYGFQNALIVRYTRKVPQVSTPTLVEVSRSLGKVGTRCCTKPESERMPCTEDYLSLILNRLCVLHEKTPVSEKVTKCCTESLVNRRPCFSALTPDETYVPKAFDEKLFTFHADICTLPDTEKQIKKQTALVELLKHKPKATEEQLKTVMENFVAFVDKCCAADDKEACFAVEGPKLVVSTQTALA
Histone H3-BSA 2.7x peptide-protein conjugate (bovine), sequence (P02769 25-607 limits assumed): as above
pErk1/2-BSA 2.7x peptide-protein conjugate (human; bovine), sequence (P02769 25-607 limits assumed): as above
Erk1-BSA 2.7x peptide-protein conjugate (human; bovine), sequence (peptide, as listed by the source limits assumed, chain 1 of 2): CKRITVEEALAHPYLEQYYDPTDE
Erk1-BSA 2.7x peptide-protein conjugate (human; bovine), sequence (P02769 25-607 limits assumed, chain 2 of 2): as the sequence (P02769 25-607 limits assumed) above
UniProt P28482, sequence (P28482 2-360 limits assumed): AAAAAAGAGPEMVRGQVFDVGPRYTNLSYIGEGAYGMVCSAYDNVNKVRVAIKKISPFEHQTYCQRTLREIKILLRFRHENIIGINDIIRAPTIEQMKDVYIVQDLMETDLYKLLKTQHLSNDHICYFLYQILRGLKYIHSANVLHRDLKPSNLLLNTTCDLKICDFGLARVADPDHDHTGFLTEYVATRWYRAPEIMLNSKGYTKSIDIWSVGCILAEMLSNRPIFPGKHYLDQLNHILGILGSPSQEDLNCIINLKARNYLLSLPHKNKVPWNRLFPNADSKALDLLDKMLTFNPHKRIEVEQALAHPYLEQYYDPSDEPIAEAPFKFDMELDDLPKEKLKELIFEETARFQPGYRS

maximum standard curve signal [1]: < 0.01 RFI
maximum standard curve signal [2]: < 0.01 RFI
maximum standard curve signal [3]: < 0.01 RFI
maximum standard curve signal [4]: < 0.01 RFI
maximum standard curve signal [5]: < 0.01 RFI
maximum standard curve signal [6]: < 0.01 RFI
maximum standard curve signal [7]: 0.3 RFI
maximum standard curve signal [8]: 7.04 RFI
maximum standard curve signal [9]: 4.28 RFI
maximum standard curve signal [10]: < 0.01 RFI
maximum standard curve signal [11]: < 0.01 RFI
maximum standard curve signal [12]: < 0.01 RFI
maximum standard curve signal [13]: < 0.01 RFI
maximum standard curve signal [14]: < 0.01 RFI
maximum standard curve signal [15]: 0.01 RFI
maximum standard curve signal [16]: < 0.01 RFI
maximum standard curve signal [17]: < 0.01 RFI
maximum standard curve signal [18]: < 0.01 RFI
maximum standard curve signal [19]: 0.04 RFI
maximum standard curve signal [20]: 1.13 RFI
maximum standard curve signal [21]: 1.41 RFI
maximum standard curve signal [22]: < 0.01 RFI
maximum standard curve signal [23]: < 0.01 RFI
maximum standard curve signal [24]: < 0.01 RFI
Substance: Histone H3 antibody, Abcam ab1791

maximum standard curve signal [25]: 0.01 RFI
maximum standard curve signal [26]: 0.01 RFI
maximum standard curve signal [27]: 0.01 RFI
maximum standard curve signal [28]: < 0.01 RFI
maximum standard curve signal [29]: 0.01 RFI
maximum standard curve signal [30]: 0.02 RFI
maximum standard curve signal [31]: 0.01 RFI
maximum standard curve signal [32]: 0.01 RFI
maximum standard curve signal [33]: 0.1 RFI
maximum standard curve signal [34]: 0.1 RFI
maximum standard curve signal [35]: 0.01 RFI
maximum standard curve signal [36]: 0.01 RFI
Substance: p44/42 MAPK phospho (pERK1/2) Thr202/Tyr204 antibody, Cell Signaling Technology #9101
